Results on 50 sequences are retold here after the supplement of paper PMC9112550, “Optimization of the antimicrobial peptide Bac7 by deep mutational scanning” (BMC Biology, 2022).

For the data set, the system named is Escherichia coli TOP10. The experiment in a line: shrunken log2 fold change of peptide-encoding DNA abundance (4.5 h post-induction vs induction); higher = less antimicrobial activity (less host growth inhibition). The settings on record: time post-induction: 4.5 h; library: site-saturation at positions 5, 18, 19, 20.
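Also: peptides expressed intracellularly from a pBAD plasmid library in pooled LB shake-flask culture, induced with 0.3% L-arabinose, DNA abundance read by NGS, three biological replicates, DESeq2 with apeglm shrinkage.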

Take RRIRNRPPRLPRPRPRPHVKPRP: the “shrunken log2 fold change” value is -0.17.

Consider RRIRPRPPRLPRPRPRPHWNPRP, for which the “shrunken log2 fold change” value is -0.447. The same measure for RRIRGRPPRLPRPRPRPHEHPRP: 1.13; for RRIRKRPPRLPRPRPRPHMAPRP: -0.448; for RRIRDRPPRLPRPRPRPGWWPRP: 0.227. For RRIRVRPPRLPRPRPRPVFEPRP, the “shrunken log2 fold change” value is -0.0665. As for RRIRPRPPRLPRPRPRPCLEPRP, the “shrunken log2 fold change” value is -0.0989.

Turning to RRIRARPPRLPRPRPRPQKAPRP, the “shrunken log2 fold change” value was 0.0481. The same measure for RRIRARPPRLPRPRPRPDAMPRP: 1.02. On to RRIRQRPPRLPRPRPRPVDLPRP, for which the “shrunken log2 fold change” value was -0.0892. As to RRIRHRPPRLPRPRPRPYIWPRP, the “shrunken log2 fold change” value is -0.431. Regarding RRIRSRPPRLPRPRPRPMAEPRP, the “shrunken log2 fold change” value amounted to 0.348. The same measure for RRIRIRPPRLPRPRPRPPSTPRP: 0.0126.

For the sequence RRIRDRPPRLPRPRPRPGWTPRP, the “shrunken log2 fold change” value was 0.379. Turning to RRIRFRPPRLPRPRPRPSHGPRP, the “shrunken log2 fold change” value was -0.391. Then RRIRWRPPRLPRPRPRPQKVPRP, with 0.166; and RRIRMRPPRLPRPRPRPGFQPRP, with 0.151. Then RRIRLRPPRLPRPRPRPTTEPRP, with -0.00894; and RRIRPRPPRLPRPRPRPNRAPRP, with 0.371; and RRIRLRPPRLPRPRPRPPTLPRP, with 0.4. For RRIRIRPPRLPRPRPRPWTPPRP, the “shrunken log2 fold change” value was -0.179.

Turning to RRIRVRPPRLPRPRPRPHSAPRP, the “shrunken log2 fold change” value was -0.119. The same measure for RRIRHRPPRLPRPRPRPDNMPRP: 3.69. Then RRIRLRPPRLPRPRPRPFVGPRP, with 4.94e-06; and RRIRIRPPRLPRPRPRPAPFPRP, with 0.271; and RRIRSRPPRLPRPRPRPGIYPRP, with -0.135. Regarding RRIRNRPPRLPRPRPRPESAPRP, the “shrunken log2 fold change” value was -0.0184. The same measure for RRIRARPPRLPRPRPRPVRVPRP: 0.781. The same measure for RRIRYRPPRLPRPRPRPHDYPRP: -0.119; for RRIRFRPPRLPRPRPRPMFHPRP: -0.473; for RRIRMRPPRLPRPRPRPQYCPRP: -0.0737. Then RRIRSRPPRLPRPRPRPVLKPRP, with -0.0386; and RRIRARPPRLPRPRPRPRYVPRP, with -0.25. RRIRCRPPRLPRPRPRPYACPRP: the “shrunken log2 fold change” value was -0.0609. Then RRIRMRPPRLPRPRPRPGHWPRP, with 0.263; and RRIRWRPPRLPRPRPRPMCQPRP, with 0.132. Then RRIRARPPRLPRPRPRPNRYPRP, with -0.191; and RRIRYRPPRLPRPRPRPQLHPRP, with -0.395; and RRIRKRPPRLPRPRPRPMCSPRP, with -0.0421.

In the case of RRIRIRPPRLPRPRPRPVGKPRP, the “shrunken log2 fold change” value was -0.118. As to RRIRVRPPRLPRPRPRPKSEPRP, the “shrunken log2 fold change” value worked out at 0.0185. Then RRIRDRPPRLPRPRPRPIMEPRP, with 0.594. For the sequence RRIRTRPPRLPRPRPRPSCAPRP, the “shrunken log2 fold change” value was -0.127. The same measure for RRIRPRPPRLPRPRPRPPVFPRP: 0.308; for RRIRNRPPRLPRPRPRPCERPRP: -0.00992. Then RRIRWRPPRLPRPRPRPQCYPRP, with -0.252; and RRIRTRPPRLPRPRPRPRWIPRP, with 0.0272. The same measure for RRIRCRPPRLPRPRPRPQVMPRP: -0.464; for RRIRHRPPRLPRPRPRPVKPPRP: 0.0296. For the sequence RRIRHRPPRLPRPRPRPIPAPRP, the “shrunken log2 fold change” value worked out at 0.32.
